Measured values from the RNAGym collection of RNA variant scans (doi:10.7554/elife.90254).

B1: OR4K15 (parent)
chain: GUUAACGGUCAUAGGCCAUGGAAACUAGGAGCACCAUUUCGCUGCCAGUGAAGAAAUGAACAAAGAAAAUCUGGGCCAGGCAGGCAUCAAAAGAAAUAGUCUUGCGCUCAACCAGAAAGUCUGUAAUCAUUUUAAGGGUA

Variants of: B1
Assay: self-cleavage, relative activity (ratio to wild type); higher = more cleavage; in vitro, sequencing; the parent is a self-cleaving ribozyme

Row | Variant | self-cleavage
1 | GUUAACGGUCAUAGGCCAUGGAAACUAGGAGCUCCAUUUCGCUGCCAGUGAAGAAAUGAACAAAGAAAAUCUGGGCCAGGCAGGCAUCAAAAGAAAUAGUCUUGCGCUCAACCAGAAAGCCUGUAAUCAUUUUAAGGGUA [A33U U120C] | 1.32
2 | GUUAACGGUCAUAGGCCAUGGAAACUAGGAGCUCCAUUUCGCUGCCAGUGAAGAAAUGAACAAAGAAAAUCUGGGCCAGGCAGGCAUCAAAAGAAAUAGUCUUGCGCUCAACCAGAGAGUCUGUAAUCAUUUUAAGGGUA [A33U A117G] | 1.9
3 | GUUAACGGUCAUAGGCCAUGGAAACUAGGAGCUCCAUUUCGCUGCCAGUGAAGAAAUGAACAAAGAAAAUCUGGGCCAGGCAGGCAUCAAAAGAAAUAGUCUUGCGCUCAACCAGAAAGUCUGUAAUCAUUUUAUGGGUA [A33U A135U] | 1.79
4 | GUUAACGGUCAUAGGCCAUGGAAACUAGGAGCAACAUUUCGCUGCCAGUGAAGAAAUGGACAAAGAAAAUCUGGGCCAGGCAGGCAUCAAAAGAAAUAGUCUUGCGCUCAACCAGAAAGUCUGUAAUCAUUUUAAGGGUA [C34A A59G] | 1.11
5 | GUUAACGGUCAUAGGCCAUGGAAACUAGGAGCUCCAUUUCGCCGCCAGUGAAGAAAUGAACAAAGAAAAUCUGGGCCAGGCAGGCAUCAAAAGAAAUAGUCUUGCGCUCAACCAGAAAGUCUGUAAUCAUUUUAAGGGUA [A33U U43C] | 0.26
6 | GUUAACGGUCAUAGGCCAUGGAAACUAGGAGCUCCAUUUCGCUGCCAGUGAAGAAAUGAACAAAGAAAAUCUGGGCCAGGCAGGCAUCAAAAGAAAUAGUCUUGCGCUCAACCAGAAAGUCUGUAAACAUUUUAAGGGUA [A33U U127A] | 2.74
7 | GUUAACGGUCAUAGGCCAUGGAAACUAGGAGCAACAUUUCGCUGCCAGUGAAGAAAUGAACAAAGAAAAUCUGGGCCAGGCAGGCAUCAAACGAAAUAGUCUUGCGCUCAACCAGAAAGUCUGUAAUCAUUUUAAGGGUA [C34A A92C] | 0.26
8 | GUUAACGGUCAUAGGCCAUGGAAACUAGGAGCUCCAUUCCGCUGCCAGUGAAGAAAUGAACAAAGAAAAUCUGGGCCAGGCAGGCAUCAAAAGAAAUAGUCUUGCGCUCAACCAGAAAGUCUGUAAUCAUUUUAAGGGUA [A33U U39C] | 1.56
9 | GUUAACGGUCAUAGGCCAUGGAAACUAGGAGCUCCAUUUCGCUGCCAGUGAAGAAAUGAACAAAGAAAAUCUGGGCCAGGCAGGCAUCAAAAGAAAUAGUCUUGCGCUCAAUCAGAAAGUCUGUAAUCAUUUUAAGGGUA [A33U C112U] | 0.01
10 | GUUAACGGUCAUAGGCCAUGGAAACUAGGAGCUCCAUUUCGCUGCCAGUGAAGAAAUGAACAAAGAAAAUCUGGGCCAGGCAGGCAUCAAAAGAAAUAGUCUUGCGCUCAACCAGAAAGUCUGUAAUCAUUUUAAGGGCA [A33U U139C] | 1.86
11 | GUUAACGGUCAUAGGCCAUGGAAACUAGGAGCUCCAUUUCGCUGCCAGUGAAGAAAUGAACAAAGAAAAUCUGGGCCAGGCAGGCAUCAAAAGAAAUAGUCUUGCGCUCAACCAGAAAGUCUGUAAUCAUUUUAAGGGGA [A33U U139G] | 2.5
12 | GUUAACGGUCAUAGGCCAUGGAAACUAGGAGCUCCAUCUCGCUGCCAGUGAAGAAAUGAACAAAGAAAAUCUGGGCCAGGCAGGCAUCAAAAGAAAUAGUCUUGCGCUCAACCAGAAAGUCUGUAAUCAUUUUAAGGGUA [A33U U38C] | 2
13 | GUUAACGGUCAUAGGCCAUGGAAACUAGGAGCAACAUUUCGCUGCCAGUGAAGAGAUGAACAAAGAAAAUCUGGGCCAGGCAGGCAUCAAAAGAAAUAGUCUUGCGCUCAACCAGAAAGUCUGUAAUCAUUUUAAGGGUA [C34A A55G] | 1.25
14 | GUUAACGGUCAUAGGCCAUGGAAACUAGGAGCAACAUUUCGCUGCCAGUGAAGAAAUGAACAAAGAAAAUCUGGGCCAGGCAGGCAUCAAAAGAAAUAGUCAUGCGCUCAACCAGAAAGUCUGUAAUCAUUUUAAGGGUA [C34A U102A] | 1.09
15 | GUUAACGGUCAUAGGCCAUGGAAACUAGGAGCUCCAUUUCGCUGCCAGUGAAGAAACGAACAAAGAAAAUCUGGGCCAGGCAGGCAUCAAAAGAAAUAGUCUUGCGCUCAACCAGAAAGUCUGUAAUCAUUUUAAGGGUA [A33U U57C] | 0.68
16 | GUUAACGGUCAUAGGCCAUGGAAACUAGGAGCUCCAUUUCGCUGCCAGUGAAGAAAUGAACAAAGAAAAUCUGGGCCAGGCAGGCAUCAAAAGAAAUAGUCUUGCGCUCAACCAGAAAGUCUGUAAUCACUUUAAGGGUA [A33U U130C] | 2
17 | GUUAACGGUCAUAGGCCAUGGAAACUAGGAGCUCCAUUUCGCUGCCAGUGAAGAAAUGAACAAAGAAAAUCUGGGCCAGGCAGGCAUCAAAAGAAAUAGUCUUGCGCUCAACCAGAACGUCUGUAAUCAUUUUAAGGGUA [A33U A118C] | 1.06
18 | GUUAACGGUCAUAGGCCAUGGAAACUAGGAGCUCCAUUUCGCUGCCAGUGAAGAAAUGAACAAAGAAAAUCUGGGCCAGGCAGGCAUCAAAAGAAAUAGUCUUGCGCUCAACCAGAAGGUCUGUAAUCAUUUUAAGGGUA [A33U A118G] | 0.91
19 | GUUAACGGUCAUAGGCCAUGGAAACUAGGAGCUCCAUUUCGCUGCCAGUGAAGAAAUGAACAAAGAAAAUCUGGGCCAGGCAGGCAUCAAAAGAAAUAGUCUUGUGCUCAACCAGAAAGUCUGUAAUCAUUUUAAGGGUA [A33U C105U] | 0.49
20 | GUUAACGGUCAUAGGCCAUGGAAACUAGGAGCAACAUUUCGCUGCCAGUGAAGAAAUGAACAAAGAAAAUCUGGGCCAGGCAGGCAUCAAAAGAAAUAGUCUCGCGCUCAACCAGAAAGUCUGUAAUCAUUUUAAGGGUA [C34A U103C] | 0.77
21 | GUUAACGGUCAUAGGCCAUGGAAACUAGGAGCUCCACUUCGCUGCCAGUGAAGAAAUGAACAAAGAAAAUCUGGGCCAGGCAGGCAUCAAAAGAAAUAGUCUUGCGCUCAACCAGAAAGUCUGUAAUCAUUUUAAGGGUA [A33U U37C] | 1.51

Row | Variant | self-cleavage
22 | GUUAACGGUCAUAGGCCAUGGAAACUAGGAGCAACAUUUCGCUGCCAGUGAAGAAAUGAACAAAGAAAAUCUGGGCCAGGCAGGCAUCAAAAGAAAUAGUCUUGCGCUCAACCAGUAAGUCUGUAAUCAUUUUAAGGGUA [C34A A116U] | 0.51
23 | GUUAACGGUCAUAGGCCAUGGAAACUAGGAGCUCCAUUUCGCUGCCAGUGAAGAAAUGAACAAAGAAAAUCUGGGCCAGGCAGGCAUCAAAAGAAAUAGUCUUGCGCUCAACCAGAAAGUCUGUGAUCAUUUUAAGGGUA [A33U A125G] | 0.99
24 | GUUAACGGUCAUAGGCCAUGGAAACUAGGAGCAACAUUUCGCAGCCAGUGAAGAAAUGAACAAAGAAAAUCUGGGCCAGGCAGGCAUCAAAAGAAAUAGUCUUGCGCUCAACCAGAAAGUCUGUAAUCAUUUUAAGGGUA [C34A U43A] | 1.8
25 | GUUAACGGUCAUAGGCCAUGGAAACUAGGAGCUCCAUUUCGCUGCCAGUGAAGAAAUGAACAAAGAAAAUCUGGGCCAGGCAGGCAUCAAAAGAAAUAGUAUUGCGCUCAACCAGAAAGUCUGUAAUCAUUUUAAGGGUA [A33U C101A] | 0.35
26 | GUUAACGGUCAUAGGCCAUGGAAACUAGGAGCUCCAUUUCGCUGCCAGUGAAGAAAUGAACAAAGAAAAUCUGGGCCAGGCAGGCAUCAAAAGAAAUAGUCUUGCGCUCAACCAGAAAGUCUGUAAUUAUUUUAAGGGUA [A33U C128U] | 1.3
27 | GUUAACGGUCAUAGGCCAUGGAAACUAGGAGCUCCAUUUCGCUGCCAGUGAAGAAAUGAACAAAGAAAAUCUGGGCCAGGCAGGCAUCAAAAGAAAUAGUCUUGCGCUCAACCAGAAAGUCUGUAAUAAUUUUAAGGGUA [A33U C128A] | 0.48
28 | GUUAACGGUCAUAGGCCAUGGAAACUAGGAGCUCCAUUUCGCUGCCAGUGAAGAAAUGAACAAAGAAAAUCUGGGCCAGGCAGGCAUCAAAAGAAAUAGUCUUGCGCUCGACCAGAAAGUCUGUAAUCAUUUUAAGGGUA [A33U A110G] | 0.08
29 | GUUAACGGUCAUAGGCCAUGGAAACUAGGAGCUCCAUUUCGCUGCCAGUGAAGAAAUGAACAAAGAAAAUCUGGGCCAGGCAGGCAUCAAAAGAAAUAGUCUUGCGCUCUACCAGAAAGUCUGUAAUCAUUUUAAGGGUA [A33U A110U] | 1.71
30 | GUUAACGGUCAUAGGCCAUGGAAACUAGGAGCUCCAUUUCGCUGCCAGUGAAGAAAUGAACAAAGAAAAACUGGGCCAGGCAGGCAUCAAAAGAAAUAGUCUUGCGCUCAACCAGAAAGUCUGUAAUCAUUUUAAGGGUA [A33U U70A] | 0.33
31 | GUUAACGGUCAUAGGCCAUGGAAACUAGGAGCUCCAUUUCGCUGCCAGUGAAGAAAUGAACAAAGAAAAUCUGGGCCAGGCAGGCAUCAAAAGAAAUAGUCUUGCGCCCAACCAGAAAGUCUGUAAUCAUUUUAAGGGUA [A33U U108C] | 0.05
32 | GUUAACGGUCAUAGGCCAUGGAAACUAGGAGCUCCAUUUCGCUGCCAGUGAAGAAAUGAACAAAGAAAAUCUGCGCCAGGCAGGCAUCAAAAGAAAUAGUCUUGCGCUCAACCAGAAAGUCUGUAAUCAUUUUAAGGGUA [A33U G74C] | 0.05
33 | GUUAACGGUCAUAGGCCAUGGAAACUAGGAGCUCCAUUUCGCUGCCAGUGAAGAAAUGAACAAAGAAAAUCGGGGCCAGGCAGGCAUCAAAAGAAAUAGUCUUGCGCUCAACCAGAAAGUCUGUAAUCAUUUUAAGGGUA [A33U U72G] | 0.51
34 | GUUAACGGUCAUAGGCCAUGGAAACUAGGAGCAACAUUUCGCUGCCAGUGAAGAAAUGAACAAAGAAAAUCUAGGCCAGGCAGGCAUCAAAAGAAAUAGUCUUGCGCUCAACCAGAAAGUCUGUAAUCAUUUUAAGGGUA [C34A G73A] | 0.17
35 | GUUAACGGUCAUAGGCCAUGGAAACUAGGAGCUCCAUUUCGCUGCCAGUGAAGAAAUGAACAAAGAAAAUCUGGGCCAGGCAGGCAUCAAAAGAAAUAGUCUUGCGCUCAACCAGAAAGUCCGUAAUCAUUUUAAGGGUA [A33U U122C] | 1.02
36 | GUUAACGGUCAUAGGCCAUGGAAACUAGGAGCUCCAUUUCGCUGCCAGUGAAGAAAUGAACAAAGAAAAUCUGGGCCAGGCAGGCAUCAAAAGAAAUAGUCUUGCGCUCAACCAGAAAGUCAGUAAUCAUUUUAAGGGUA [A33U U122A] | 2.69
37 | GUUAACGGUCAUAGGCCAUGGAAACUAGGAGCUCCAUUUCGCUGCCAGUGAAGAAAUGAACAAAGAAAAUCUGGGCCAGGCAGGAAUCAAAAGAAAUAGUCUUGCGCUCAACCAGAAAGUCUGUAAUCAUUUUAAGGGUA [A33U C85A] | 2.05
38 | GUUAACGGUCAUAGGCCAUGGAAACUAGGAGCAACAUUUCGCUGCCAGUGGAGAAAUGAACAAAGAAAAUCUGGGCCAGGCAGGCAUCAAAAGAAAUAGUCUUGCGCUCAACCAGAAAGUCUGUAAUCAUUUUAAGGGUA [C34A A51G] | 1.27
39 | GUUAACGGUCAUAGGCCAUGGAAACUAGGAGCUCCAUUUCACUGCCAGUGAAGAAAUGAACAAAGAAAAUCUGGGCCAGGCAGGCAUCAAAAGAAAUAGUCUUGCGCUCAACCAGAAAGUCUGUAAUCAUUUUAAGGGUA [A33U G41A] | 1.52
40 | GUUAACGGUCAUAGGCCAUGGAAACUAGGAGCUCCAUUUCGCUGCCAGUGAAGAAAUGAACAAAGAAAAUCUGGGCCAGGCAGGCAUCAAAAGAAAUAGUCUUACGCUCAACCAGAAAGUCUGUAAUCAUUUUAAGGGUA [A33U G104A] | 0.01
41 | GUUAACGGUCAUAGGCCAUGGAAACUAGGAGCUCCAUUUCGCUGCCAGUGAAGAAAUGAACAAAGAAAAUCUGGGCCAGGCAGGCAUCAAAAGAAAUAGUCCUGCGCUCAACCAGAAAGUCUGUAAUCAUUUUAAGGGUA [A33U U102C] | 2.32
